Article PMC4078746 (Current biology : CB, 2010)

Biological target: the molecule itself
Experiment: SEC

B1: Robo2^R1I1+2 Ig1-5 fragment (Ig1+2 of Robo, Ig3-5 of Robo2) (domain or fragment)
chain: not shown
- stoichiometry N: 2
